# The supplement of paper PMC11246515
# ± gives the standard deviation of the averaged measurements.
# Assay: total protein half-life in vivo (active degradation + dilution); higher = more stable protein
# [1] = E. coli NCM3722 delta-clpP delta-lon delta-hslV, growth: N-lim chemostat, doubling time 6 h
# [2] = E. coli NCM3722 delta-clpP, growth: N-lim chemostat, doubling time 6 h
# [3] = E. coli NCM3722 delta-hslV, growth: N-lim chemostat, doubling time 6 h
# [4] = E. coli NCM3722 delta-lon, growth: N-lim chemostat, doubling time 6 h
# [5] = E. coli NCM3722 delta-smpB, growth: N-lim chemostat, doubling time 6 h
# [6] = wild type E. coli NCM3722, growth: C-lim chemostat, doubling time 6 h
# [7] = wild type E. coli NCM3722, growth: C-lim chemostat, doubling time 12 h
# [8] = wild type E. coli NCM3722, growth: N-lim chemostat, doubling time 12 h
# [9] = wild type E. coli NCM3722, growth: P-lim chemostat, doubling time 6 h
# [10] = wild type E. coli NCM3722, growth: C-lim chemostat, doubling time 3 h
# [11] = wild type E. coli NCM3722, growth: N-lim chemostat, doubling time 6 h
# [12] = wild type E. coli NCM3722, growth: P-lim chemostat, doubling time 12 h
Sequence,total protein half-life in vivo [1] [h],total protein half-life in vivo [2] [h],total protein half-life in vivo [3] [h],total protein half-life in vivo [4] [h],total protein half-life in vivo [5] [h],total protein half-life in vivo [6] [h],total protein half-life in vivo [7] [h],total protein half-life in vivo [8] [h],total protein half-life in vivo [9] [h],total protein half-life in vivo [10] [h],total protein half-life in vivo [11] [h],total protein half-life in vivo [12] [h]
MLYVIYAQDKADSLEKRLSVRPAHLARLQLLHDEGRLLTAGPMPAVDSNDPGAAGFTGSTVIAEFESLEAAQAWADADPYVAAGVYEHVSVKPFKKVF [P0AB55],5.05 ± 0.14,4.751 ± 0.018,4.51 ± 0.13,5.1 ± 0.41,5.34 ± 1,4.96 ± 0.49,9.37,7.02 ± 0.86,6,,,
MSNWPYPRIVAHRGGGKLAPENTLASIDVGAKYGHKMIEFDAKLSKDGEIFLLHDDNLERTSNGWGVAGELNWQDLLRVDAGSWYSKMFKGEPLPLLSQVAERCREHGMMANIEIKPTTGTGPLTGKMVALAARELWAGMTPPLLSSFEIDALEAAQQAAPELPRGLLLDEWRDDWRELTARLGCVSIHLNHKLLNKARVMQLKDAGLRILVYTVNKPQRAAELLRWGVDCICTDAIDVIGPNFTAQ,4.77 ± 0.94,3.75 ± 0.46,3.65 ± 0.043,4.1 ± 0.021,3.72 ± 0.12,5.491 ± 0.049,9.38 ± 0.43,6.08 ± 0.18,5.07 ± 0.11,3.33 ± 0.72,3.87 ± 0.31,9.88 ± 0.3
MNKYQAVIIGFGKAGKTLAVTLAKAGWRVALIEQSNAMYGGTCINIGCIPTKTLVHDAQQHTDFVRAIQRKNEVVNFLRNKNFHNLADMPNIDVIDGQAEFINNHSLRVHRPEGNLEIHGEKIFINTGAQTVVPPIPGITTTPGVYDSTGLLNLKELPGHLGILGGGYIGVEFASMFANFGSKVTILEAASLFLPREDRDIADNIATILRDQGVDIILNAHVERISHHENQVQVHSEHAQLAVDALLIASGRQPATASLHPENAGIAVNERGAIVVDKRLHTTADNIWAMGDVTGGLQFTYISLDDYRIVRDELLGEGKRSTDDRKNVPYSVFMTPPLSRVGMTEEQARESGADIQVVTLPVAAIPRARVMNDTRGVLKAIVDNKTQRMLGASLLCVDSHEMINIVKMVMDAGLPYSILRDQIFTHPSMSESLNDLFSLVK,5.58 ± 0.12,4.727 ± 0.039,4.73 ± 0.26,5.53 ± 0.24,4.9 ± 0.99,,10.4 ± 1,8.5 ± 0.62,6 ± 0.4,3.31 ± 0.05,4.71 ± 0.29,12 ± 1.2
MTHKATEILTGKVMQKSVLITGCSSGIGLESALELKRQGFHVLAGCRKPDDVERMNSMGFTGVLIDLDSPESVDRAADEVIALTDNCLYGIFNNAGFGMYGPLSTISRAQMEQQFSANFFGAHQLTMRLLPAMLPHGEGRIVMTSSVMGLISTPGRGAYAASKYALEAWSDALRMELRHSGIKVSLIEPGPIRTRFTDNVNQTQSDKPVENPGIAARFTLGPEAVVDKVRHAFISEKPKMRYPVTLVTWAVMVLKRLLPGRVMDKILQG [P0AFP4],6.09 ± 0.25,6.01 ± 0.54,5.32 ± 1.6,6.02 ± 0.67,5.568 ± 0.03,6.19 ± 0.11,13.6 ± 1.8,11.9 ± 0.34,6.027 ± 0.025,3.07 ± 0.11,6.01 ± 0.4,10.4 ± 1.3
MNRRRKLLIPLLFCGAMLTACDDKSAENAAAMTPEVGVVTLSPGSVNVLSELPGRTVPYEVAEIRPQVGGIIIKRNFIEGDKVNQGDSLYQIDPAPLQAELNSAKGSLAKALSTASNARITFNRQASLLKTNYVSRQDYDTARTQLNEAEANVTVAKAAVEQATINLQYANVTSPITGVSGKSSVTVGALVTANQADSLVTVQRLDPIYVDLTQSVQDFLRMKEEVASGQIKQVQGSTPVQLNLENGKRYSQTGTLKFSDPTVDETTGSVTLRAIFPNPNGDLLPGMYVTALVDEGSRQNVLLVPQEGVTHNAQGKATALILDKDDVVQLREIEASKAIGDQWVVTSGLQAGDRVIVSGLQRIRPGIKARAISSSQENASTESKQ,5.76 ± 0.3,6.22 ± 0.68,6.15 ± 0.1,6.24 ± 0.35,5.05 ± 0.34,6.09,> 16,10.6 ± 0.88,3.99 ± 0.38,2.98,5.92 ± 0.32,8.12 ± 0.25
MKLHHRMLRHFIAASVIVLTSSFLIFELVASDRAMSAYLRYIVQKADSSFLYDKYQNQSIAAHVMRALAAEQSEVSPEQRRAICEAFESANNTHGLNLTAHKYPGLRGTLQTASTDCDTIVEAAALLPAFDQAVEGNRHQDDYGSGLGMAEEKFHYYLDLNDRYVYFYEPVNVEYFAMNNWSFLQSGSIGIDRKDIEKVFTGRTVLSSIYQDQRTKQNVMSLLTPVYVAGQLKGIVLLDINKNNLRNIFYTHDRPLLWRFLNVTLTDTDSGRDIIINQSEDNLFQYVSYVHDLPGGIRVSLSIDILYFITSSWKSVLFWILTALILLNMVRMHFRLYQNVSRENISDAMTGLYNRKILTPELEQRLQKLVQSGSSVMFIAIDMDKLKQINDTLGHQEGDLAITLLAQAIKQSIRKSDYAIRLGGDEFCIILVDSTPQIAAQLPERIEKRLQHIAPQKEIGFSSGIYAMKENDTLHDAYKASDERLYVNKQNKNSRS,6.76 ± 0.25,6.49 ± 0.48,6.32 ± 0.99,6.49 ± 0.3,5.84 ± 0.39,,,14.1 ± 0.84,6.25 ± 0.64,3.35 ± 0.26,6.57 ± 0.21,12.9 ± 0.26
